These results are taken from patent US20240010750A1 (Bayer, published 2024).

Experiment [1] has as its target T1, human alpha2-Antiplasmin (human, UniProt P08697 40-491).
T1 construct: Bought (antibodies online, ABIN2544306); also called human A2AP; a2AP
T1 sequence: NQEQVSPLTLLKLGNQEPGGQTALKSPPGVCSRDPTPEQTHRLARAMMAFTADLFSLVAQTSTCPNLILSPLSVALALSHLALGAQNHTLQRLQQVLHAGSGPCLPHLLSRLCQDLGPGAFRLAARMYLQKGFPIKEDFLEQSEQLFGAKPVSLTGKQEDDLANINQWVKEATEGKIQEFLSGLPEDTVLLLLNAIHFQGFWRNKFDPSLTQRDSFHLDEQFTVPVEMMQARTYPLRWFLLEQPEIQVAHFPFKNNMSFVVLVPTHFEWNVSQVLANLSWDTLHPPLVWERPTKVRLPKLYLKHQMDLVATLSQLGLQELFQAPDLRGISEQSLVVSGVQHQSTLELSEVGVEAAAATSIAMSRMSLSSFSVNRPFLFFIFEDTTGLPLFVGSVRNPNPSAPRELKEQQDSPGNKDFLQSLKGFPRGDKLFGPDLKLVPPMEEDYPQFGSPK
Description: ELISA, coated antigen, 3rd exp. As for the experimental part: (§1) A standard ELISA format was used for analyzing the binding affinity of Fabs of this invention to human and rabbit alpha-2-Antiplasmin, respectively. Antigens were coated to black 384 well Maxisorp microtiter plates (Nunc; catalogue number 460518), diluted to a concentration of 1 μg/ml in 1× Coating Buffer (Candor Bioscience; catalogue number 121125). Plates were incubated overnight at 4° C. After overnight incubation, plates were washed 2× with 50 μl/well using PBS+0.05% Tween 20. Following this, 50 μl/well of blocking buffer (Smart Block; Candor Bioscience; catalogue number 113500) was added and the plates were incubated for 1 hour at room temperature. Afterwards, plates were washed for 3× using […] PBS+0.05% Tween 20 buffer. Fabs of this invention were added at different concentrations in a final volume of 30 μl/well. Plates were incubated for 1 hour at room temperature. Following this incubation step, plates were washed for 3× using 50 μl/well of a PBS+0.05% Tween 20 buffer. For the detection of bound Fabs and full-length antibodies, the anti-Human Lambda Light Chains (Bound and Free)—Peroxidase antibody (Sigma; catalogue number A5175) was diluted by the factor of 1:10.000 in 10% Blocking Buffer. […]
(§2) For measurement, the Infinite f500 reader (Tecan) was used. Measurement mode: Fluorescence; Top reading; Ex 535 nm; Em 590 nm.
In general terms: In an ELISA, binding on a coated surface is turned into a signal by an enzyme label.

Experiment [2] deals with T2, rabbit alpha2-Antiplasmin (rabbit (Oryctolagus cuniculus)).
T2 construct: Made in house in HEK293 cells, purified by Ni-IMAC and SEC (a His tag is implied but not described); also called rabbit A2AP; Oryctolagus cuniculus A2AP
T2 chain: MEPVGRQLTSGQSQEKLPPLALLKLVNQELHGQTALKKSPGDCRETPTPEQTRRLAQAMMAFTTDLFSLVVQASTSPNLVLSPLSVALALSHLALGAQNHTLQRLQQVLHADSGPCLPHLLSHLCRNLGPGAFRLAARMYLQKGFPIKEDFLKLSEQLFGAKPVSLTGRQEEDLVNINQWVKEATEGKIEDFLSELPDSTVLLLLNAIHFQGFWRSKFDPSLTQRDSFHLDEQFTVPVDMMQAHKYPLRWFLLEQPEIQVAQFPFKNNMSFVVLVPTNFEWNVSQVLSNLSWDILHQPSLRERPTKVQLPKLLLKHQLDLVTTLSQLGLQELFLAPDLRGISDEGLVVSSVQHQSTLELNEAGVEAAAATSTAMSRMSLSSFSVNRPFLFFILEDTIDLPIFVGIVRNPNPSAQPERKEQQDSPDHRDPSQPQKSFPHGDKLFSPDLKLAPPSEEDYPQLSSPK
Description: ELISA, coated antigen, 3rd exp. How it is done: as §1, §2

The target in experiment [3] is T3, cynomolgus alpha2-Antiplasmin (cynomolgus (Macaca fascicularis), UniProt P08697 28-491 (human entry)).
T3 chain: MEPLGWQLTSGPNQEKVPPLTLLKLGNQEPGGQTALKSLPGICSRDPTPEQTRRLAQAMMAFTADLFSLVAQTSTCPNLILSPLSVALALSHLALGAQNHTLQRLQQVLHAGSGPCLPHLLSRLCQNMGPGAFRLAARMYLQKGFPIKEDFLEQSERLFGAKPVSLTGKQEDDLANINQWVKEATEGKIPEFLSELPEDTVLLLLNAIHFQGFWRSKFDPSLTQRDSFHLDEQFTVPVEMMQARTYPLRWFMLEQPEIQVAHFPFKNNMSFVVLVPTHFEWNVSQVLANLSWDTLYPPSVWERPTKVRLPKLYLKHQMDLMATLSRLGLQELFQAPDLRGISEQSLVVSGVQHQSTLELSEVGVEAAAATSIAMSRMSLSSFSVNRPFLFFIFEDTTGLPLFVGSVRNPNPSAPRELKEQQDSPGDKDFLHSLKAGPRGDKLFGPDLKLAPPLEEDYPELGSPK
The experiment can be described thus: cell-based or functional assay.

Experiment [4] concerns the target T3, cynomolgus alpha2-Antiplasmin. Description: ELISA, coated antigen (FIG. 6.1 legend).
The target of experiment [5] is T2, rabbit alpha2-Antiplasmin. Description: ELISA (Example 3): antigen coated at 1 ug/ml, detection with anti-human lambda light chain-peroxidase and Amplex Red, RFU [right panel]. As for the experimental part:
as §1, §2

In experiment [6] the target is T1, human alpha2-Antiplasmin. Description: ELISA (Example 3): antigen coated at 1 ug/ml, detection with anti-human lambda light chain-peroxidase and Amplex Red, RFU [left panel]. As for the experimental part: Binding activities towards human alpha2-Antiplasmin are shown in the left panel, towards rabbit alpha2-Antiplasmin are shown in the right panel of this figure. The binding activities were calculated as EC50 in M values.
as §1, with “buffer.” for “buffer. For the detection of bound Fabs and full-length antibodies, the anti-Human Lambda Light Chains (Bound and Free)—Peroxidase antibody (Sigma; catalogue number A5175) was diluted by the factor of 1:10.000 in 10% Blocking Buffer.”
For measurement, the Infinite f500 reader (Tecan) was used.

Experiment [7] addresses T1, human alpha2-Antiplasmin. The experiment can be described thus: ELISA, coated antigen, 2nd exp. How it is done: as §1
(§3) For measurement, the Infinite f500 reader (Tecan) was used. Measurement mode: Fluorescence; Top reading; Ex 535 nm; Em 590 nm. […]

Experiment [8] deals with T2, rabbit alpha2-Antiplasmin. The experiment can be described thus: ELISA, coated antigen, 2nd exp. As for the experimental part:
as §1, §3

As usually defined, the EC50 is the midpoint of the concentration-response curve. In general, EC50 (read off the curve) refers to the concentration needed to bring the measured effect to its halfway point.

B1: TPP-12387 hIgG1 (antibody, V domains shown)
VH: EVQLLESGGGLVQPGGSLRLSCAASGFTFDDYAMSWVRQAPGKGLEWVSAIGTGGGTYYADSVKGRFTISRDNSKNTLYLQMNSLRAEDTAVYYCAREYYDSSGYYHLDYWGQGTLVTVSS
VL: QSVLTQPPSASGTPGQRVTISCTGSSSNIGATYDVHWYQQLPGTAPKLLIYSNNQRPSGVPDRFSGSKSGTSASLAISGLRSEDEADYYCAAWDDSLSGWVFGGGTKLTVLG
notes: Fully human IgG1 lambda from the BioInvent n-CoDeR Fab lambda library; parental lead antibody
In the case of B1, the EC50 stood at 130 nM in the experiment with human alpha2-Antiplasmin [1]; 6.2 nM in experiment [2]; 99 nM in experiment [4]; 100 nM in the experiment with human alpha2-Antiplasmin [7]; 6.07 nM in experiment [8]. Also, in experiment [3], the “EC50 (read off the curve); function blocking assay (Example 4), RFU of plasmin substrate cleavage” value is about 200 nM. Moreover, the “EC50 (read off the curve)” value in experiment [5] is about 6 nM; with human alpha2-Antiplasmin [6] it was about 100 nM.
